For assay [1], the target named is T1, ARN (Homo sapiens, UniProt P10275).
T1 construct: The AR has a large N-terminus (ARN); expressed in transfected cells; host or cells: H1299
T1 sequence (P10275 1-559 limits assumed): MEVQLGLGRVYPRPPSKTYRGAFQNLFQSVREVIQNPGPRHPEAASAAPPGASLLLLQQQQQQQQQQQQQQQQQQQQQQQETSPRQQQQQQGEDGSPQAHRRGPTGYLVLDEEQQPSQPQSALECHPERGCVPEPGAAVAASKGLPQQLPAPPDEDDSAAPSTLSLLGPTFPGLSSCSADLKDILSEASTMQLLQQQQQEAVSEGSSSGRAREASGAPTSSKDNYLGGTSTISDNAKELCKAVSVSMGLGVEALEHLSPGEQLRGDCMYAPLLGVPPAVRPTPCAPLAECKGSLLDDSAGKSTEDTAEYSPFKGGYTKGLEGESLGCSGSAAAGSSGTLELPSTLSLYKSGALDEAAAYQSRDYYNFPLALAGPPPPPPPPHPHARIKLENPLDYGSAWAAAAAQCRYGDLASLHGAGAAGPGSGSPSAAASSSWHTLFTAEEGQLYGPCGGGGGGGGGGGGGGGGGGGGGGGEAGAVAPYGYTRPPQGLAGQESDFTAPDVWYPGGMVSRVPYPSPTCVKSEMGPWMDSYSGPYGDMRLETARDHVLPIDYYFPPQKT
T1 sequence (Q92624 1-585 partner): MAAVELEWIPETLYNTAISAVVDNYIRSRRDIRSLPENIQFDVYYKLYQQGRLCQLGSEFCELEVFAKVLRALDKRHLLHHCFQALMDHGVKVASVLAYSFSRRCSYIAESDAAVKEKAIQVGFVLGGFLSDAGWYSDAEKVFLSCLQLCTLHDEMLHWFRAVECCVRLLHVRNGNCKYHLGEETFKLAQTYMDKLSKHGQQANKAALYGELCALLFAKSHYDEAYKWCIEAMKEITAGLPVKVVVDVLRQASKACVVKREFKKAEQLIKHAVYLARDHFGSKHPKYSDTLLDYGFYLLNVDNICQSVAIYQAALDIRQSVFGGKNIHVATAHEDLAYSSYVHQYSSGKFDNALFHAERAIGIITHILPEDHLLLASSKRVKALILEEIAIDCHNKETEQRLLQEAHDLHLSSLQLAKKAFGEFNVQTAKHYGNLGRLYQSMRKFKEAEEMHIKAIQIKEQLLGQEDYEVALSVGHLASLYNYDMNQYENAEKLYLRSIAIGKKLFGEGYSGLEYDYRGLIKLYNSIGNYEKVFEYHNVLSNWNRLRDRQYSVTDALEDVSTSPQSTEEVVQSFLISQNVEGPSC
Put plainly: Mammalian two-hybrid assay ARA67 / ARN in H1299 cells. It counts as cell-based. To be noted: pM-ARA67 and pVP16-ARN, pG5-Luc. Here is the method:
(§1) H1299 and COS-1 cells were maintained in Dulbecco's modified Eagle's medium (DMEM) (Life Technologies, Inc.) supplemented with 10% heat inactivated fetal bovine serum (FBS). LNCap cells were maintained in RPMI 1640 supplemented with […]. All media contain 100 units penicillin, 100 μg/ml streptomycin and 2 mM L-glutamine. Cells were seeded to a density of 50-60% confluency for transfection. In transfections where H1299 and COS-1 cells were used, the calcium phosphate precipitation method was used as described (Pan H J, et al. 1999. Endocrine 11:321-327) unless otherwise noted. […] In other reporter gene assays, where ligand treatment was required, cell culture media were changed to DMEM containing 10% charcoal-dextran-stripped FBS (CD-FBS) 2 h before transfection. After 16-18 h transfection, cells were treated with medium containing either vehicle or ligands for another 20-24 h and then cells were harvested. With LNCap cells transfection, the cells were treated with fresh RPMI 1640 containing 10% CD-FBS before transfection with SuperFect performed according to the manufacturer's protocol (Qiagen). After transfection, cells were allowed to recover in fresh RPMI 1640 containing 10% CD-FBS for 8-12 h, and then treated with either vehicle or ligands for another 20-24 h before harvesting. Each experiment was repeated at least three times.

For assay [2], the system named is PSA expression in LNCaP cells. Put plainly: DHT induced PSA expression in LNCaP cells transfected with ARA67 (Western blot). The assay is classed as cell-based, human. To be noted: pSG5-ARA67 transfected. The procedure: as §1, with “times. […]” for “times.”
For orientation: Immunoblotting shows a protein as a band on a membrane.

For assay [3], the system named is microtubules. To be noted: in the presence of Mg-ATP; cited from earlier work.

Results on 1 molecule are retold here after patent US20080050387A1, “Non-Androgen Dependent Roles for Androgen Receptor and Non-Androgen Related Inhibitors of Androgen Receptor” (priority 2003, published 2008).

B1: ARA67: AR N-terminal interacting protein of 585 amino acids (SEQ ID NO:1), matches PAT1; functions as a repressor of AR (protein)
chain: MAAVELEWIPETLYNTAISAVVDNYIRSRRDIRSLPENIQFDVYYKLYQQGRLCQLGSEFCELEVFAKVLRALDKRHLLHHCFQALMDHGVKVASVLAYSFSRRCSYIAESDAAVKEKAIQVGFVLGGFLSDAGWYSDAEKVFLSCLQLCTLHDEMLHWFRAVECCVRLLHVRNGNCKYHLGEETFKLAQTYMDKLSKHGQQANKAALYGELCALLFAKSHYDEAYKWCIEAMKEITAGLPVKVVVDVLRQASKACVVKREFKKAEQLIKHAVYLARDHFGSKHPKYSDTLLDYGFYLLNVDNICQSVAIYQAALDIRQSVFGGKNIHVATAHEDLAYSSYVHQYSSGKFDNALFHAERAIGIITHILPEDHLLLASSKRVKALILEEIAIDCHNKETEQRLLQEAHDLHLSSLQLAKKAFGEFNVQTAKHYGNLGRLYQSMRKFKEAEEMHIKAIQIKEQLLGQEDYEVALSVGHLASLYNYDMNQYENAEKLYLRSIAIGKKLFGEGYSGLEYDYRGLIKLYNSIGNYEKVFEYHNVLSNWNRLRDRQYSVTDALEDVSTSPQSTEEVVQSFLISQNVEGPSC
With B1, the “reporter luciferase activity (association with ARN)” value in assay [1] was “highly induced”. Also, the “DHT induced PSA expression” value in assay [2] is reported as “decreased”. In assay [3], the “enhancement of microtubule binding” value is reported as 5-10 fold.
